Measurements as given in US20180009871A1 (INTARCIA THERAPEUTICS, published 2018).
Where no end group is shown, it is not given here. [ ]: non-standard residue; d: D form. Formula III = not defined here; Formula II = not defined here; Aib = CC(C)(N)C(=O)O

Assays:
Experiment in all cases: cell-based or functional assay
[1] = target: human glucagon receptor (GCGR) (human, UniProt P47871 26-477)
[2] = target: human GLP-1 receptor (GLP-1R) (human, UniProt P43220 24-463)
Target sequence in this assay (P43220 24-463): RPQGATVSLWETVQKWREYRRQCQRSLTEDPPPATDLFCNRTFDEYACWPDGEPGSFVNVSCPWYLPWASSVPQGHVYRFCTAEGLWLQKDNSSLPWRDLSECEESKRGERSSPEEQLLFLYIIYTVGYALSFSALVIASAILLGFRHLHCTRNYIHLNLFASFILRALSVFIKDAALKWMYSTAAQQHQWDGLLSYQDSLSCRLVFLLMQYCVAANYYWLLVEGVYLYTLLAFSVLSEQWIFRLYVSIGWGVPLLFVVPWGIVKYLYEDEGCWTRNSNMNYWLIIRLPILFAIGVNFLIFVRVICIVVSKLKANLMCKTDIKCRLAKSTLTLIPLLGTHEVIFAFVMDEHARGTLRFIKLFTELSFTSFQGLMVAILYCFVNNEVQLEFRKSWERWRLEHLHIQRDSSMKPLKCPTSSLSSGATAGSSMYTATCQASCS

[3] = target: human glucagon receptor (GCGR) (human, UniProt P47871 26-477); remark: listed apart in the source
[4] = target: human GLP-1 receptor (GLP-1R) (human, UniProt P43220 24-463); remark: listed apart in the source
Target sequence in this assay (P43220 24-463): as above

Row | Binder | GluR pEC 50 [1] [pEC50] | GLP-1R pEC 50 [2] [pEC50] | hGCGR pEC50 (cAMP) [3] [pEC50] | hGLP1 pEC50 (cAMP) [4] [pEC50]
1 | YSHGTFTSDYSKYLD[Aib]KYAQEFVK(Formula III)WLEDEPSSGAPPPS-OH (reading uncertain) [Compound B6] | 10.1 | < 6 |  | 
2 | YSHGTFTSDYSKYLD[Aib]KSAQEFVKWLEDEPSSGAPPPS-OH (not fully specified (residue 24); printed as YSHGTFTSDYSKYLD(Aib)KSAQEFVK****WLEDEPSSGAPPPS-OH; also: structure of Formula II substituent not given here) [Compound B10] | 9.9 | < 6 |  | 
3 | YSHGTFTSDK(Formula III)SKYLD[Aib]KYAQEFV[Aib]WLEDEPSSGAPPPS-OH (reading uncertain) [Compound B8] | 10.6 | < 6 |  | 
4 | YSHGTFTSDYSKYLD[Aib]KYAQEFV[Aib]WLEDEPSSK(Formula III)APPPS-OH (reading uncertain) [Compound B5] | 9.6 | < 6 |  | 
5 | YSHGTFTSDYSKYLDK(Formula II)KYAQEFV[Aib]WLEDEPSSGAPPPS-OH (reading uncertain) [Compound B3] | 11.4 | < 6 |  | 
6 | YSHGTFTSDYSKYLDK(Formula III)KYAQEFV[Aib]WLEDEPSSGAPPPS-OH (reading uncertain) [Compound B7] | 8.6 | < 6 |  | 
7 | YSHGTFTSDYSKYLD[Aib]KYAQEFVK(Formula II)WLEDEPSSGAPPPS-OH (reading uncertain) [Compound B2] | 11.1 | < 6 |  | 
8 | YSHGTFTSDYSKYLD[Aib]KRAQEFV[Aib]WLEDEGGPSSGAPPPS-OH (N-terminus assumed; SMILES CC(C)C[C@H](NC(=O)[C@H](Cc1ccc(O)cc1)NC(=O)[C@H](CCCCN)NC(=O)[C@H](CO)NC(=O)[C@H](Cc1ccc(O)cc1)NC(=O)[C@H](CC(=O)O)NC(=O)[C@H](CO)NC(=O)[C@@H](NC(=O)[C@H](Cc1ccccc1)NC(=O)[C@@H](NC(=O)CNC(=O)[C@H](Cc1c[nH]cn1)NC(=O)[C@H](CO)NC(=O)[C@@H](N)Cc1ccc(O)cc1)[C@@H](C)O)[C@@H](C)O)C(=O)N[C@@H](CC(=O)O)C(=O)NC(C)(C)C(=O)N[C@@H](CCCCN)C(=O)N[C@@H](CCCNC(=N)N)C(=O)N[C@@H](C)C(=O)N[C@@H](CCC(N)=O)C(=O)N[C@@H](CCC(=O)O)C(=O)N[C@@H](Cc1ccccc1)C(=O)N[C@H](C(=O)NC(C)(C)C(=O)N[C@@H](Cc1c[nH]c2ccccc12)C(=O)N[C@@H](CC(C)C)C(=O)N[C@@H](CCC(=O)O)C(=O)N[C@@H](CC(=O)O)C(=O)N[C@@H](CCC(=O)O)C(=O)NCC(=O)NCC(=O)N1CCC[C@H]1C(=O)N[C@@H](CO)C(=O)N[C@@H](CO)C(=O)NCC(=O)N[C@@H](C)C(=O)N1CCC[C@H]1C(=O)N1CCC[C@H]1C(=O)N1CCC[C@H]1C(=O)N[C@@H](CO)C(=O)O)C(C)C) [Compound A27] |  |  | 12.1 | < 9
9 | YSHGTFTSDK(Formula II)SKYLD[Aib]KYAQEFV[Aib]WLEDEPSSGAPPPS-OH (reading uncertain) [Compound B4] | 9.1 | < 6 |  | 
10 | YSHGTFTSDYSKYLD[Aib]KSAQEFV[Aib]WLEDEPSSK(Formula II)APPPS-OH (reading uncertain) [Compound B9] | 11.1 | < 6 |  | 
